Experimental findings from paper PMC10107836 (Chembiochem, 2022) are described below.

Several values for one entry are separate records, joined by “and”; a condition that tells them apart may be missing. Identical values can stand only once.

For the assay, the target named is extraviral domain of SARS-CoV-2 spike protein (aa 1-1213) (SARS-CoV-2) (UniProt P0DTC2). As to the kind of experiment: SPR.

Take “pineapple-derived jacalin-related lectin AcmJRL (natural protein)”: the Kd – broadly, the concentration at which binding is half-saturated – is 3.3 µM and 11.1 µM; the koff (in general, the rate constant with which the complex falls apart) turned out to be 0.0034 s⁻¹; the association rate constant (kon) (commonly the rate constant with which the complex forms) was 1060 M⁻¹ s⁻¹.
